According to publication PMC3919030:

How the values were obtained:
[1] = target: Acidianus hospitalis Vps4 (AhosVps4, wild type, full length) (Acidianus hospitalis); assay: SEC
[2] = target: Vps4p (Saccharomyces cerevisiae) (UniProt P52917); settings: cited from earlier work
Chain of Vps4p (Saccharomyces cerevisiae) (P52917 whole entry): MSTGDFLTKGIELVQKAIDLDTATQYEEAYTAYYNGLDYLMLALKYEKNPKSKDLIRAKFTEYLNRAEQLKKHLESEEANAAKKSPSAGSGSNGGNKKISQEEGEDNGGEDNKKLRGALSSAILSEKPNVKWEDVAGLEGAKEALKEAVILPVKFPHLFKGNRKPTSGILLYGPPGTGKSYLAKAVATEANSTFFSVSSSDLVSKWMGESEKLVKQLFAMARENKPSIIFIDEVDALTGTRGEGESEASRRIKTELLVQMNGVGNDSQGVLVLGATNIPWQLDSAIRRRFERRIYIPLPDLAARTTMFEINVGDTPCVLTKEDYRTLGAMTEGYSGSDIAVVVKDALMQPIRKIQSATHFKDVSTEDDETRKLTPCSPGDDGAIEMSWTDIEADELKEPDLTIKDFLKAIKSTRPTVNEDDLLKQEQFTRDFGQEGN

Chain of Vta1p (Q06263 whole entry): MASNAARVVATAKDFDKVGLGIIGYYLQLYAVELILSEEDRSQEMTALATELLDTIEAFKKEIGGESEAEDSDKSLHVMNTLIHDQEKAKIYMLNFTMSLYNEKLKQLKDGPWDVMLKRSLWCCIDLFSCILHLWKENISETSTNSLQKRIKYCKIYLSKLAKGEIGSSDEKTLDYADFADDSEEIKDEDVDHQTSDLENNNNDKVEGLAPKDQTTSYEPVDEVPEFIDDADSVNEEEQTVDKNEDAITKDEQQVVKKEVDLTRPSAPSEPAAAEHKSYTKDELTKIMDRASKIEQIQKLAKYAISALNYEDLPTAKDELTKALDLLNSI

stoichiometry N [1] | Substance | Kd [2] [µM]
6 | Acidianus hospitalis Vps4 (AhosVps4, wild type, full length) (enzyme) | –
– | Vta1p (from UniProt Q06263) | 17
